{"source": "paper PMC7290806", "about": "“VviWRKY40, a WRKY Transcription Factor, Regulates Glycosylated Monoterpenoid Production by VviGT14 in Grape Berry”", "binders": {"B1": {"name": "VviGT14 promoter 41-bp w-box fragment (dsDNA)", "DNA 1": "AGAAGTGAGAGGGTAAGTTGACCATGCACTCTCATCTAGAT", "DNA 2": "ATCTAGATGAGAGTGCATGGTCAACTTACCCTCTCACTTCT"}}, "biological_target": "T1, VviWRKY40 (Vitis vinifera 'Muscat blanc à Petit …, UniProt E7BTN0 1-317)", "T1 sequence": "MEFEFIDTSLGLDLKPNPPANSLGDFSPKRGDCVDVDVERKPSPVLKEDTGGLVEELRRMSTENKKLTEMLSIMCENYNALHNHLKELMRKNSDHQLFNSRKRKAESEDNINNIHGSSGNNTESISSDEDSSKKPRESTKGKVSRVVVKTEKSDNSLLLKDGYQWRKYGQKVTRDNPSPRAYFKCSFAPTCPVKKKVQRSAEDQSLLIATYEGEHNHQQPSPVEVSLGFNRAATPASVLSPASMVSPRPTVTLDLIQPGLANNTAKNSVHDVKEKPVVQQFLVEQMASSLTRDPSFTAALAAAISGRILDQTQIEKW", "assay": "EMSA; shift without cold probe and with up to 50x cold probe; 50x and 200x unlabeled self-competitor tested; EMSA: LightShift Chemiluminescent kit, 50 ng protein, 15 ng probe, room temperature, 25 min (buffer and pH not stated); pull-down: poly(dI-dC), DTT, EDTA, EGTA, 4 °C, 1 h", "settings": "protein: recombinant; tags: 6xHis, pET32a fusion (19 kDa tag, 55 kDa in total); label: 3' biotin (Methods also says digoxigenin-labeled); blunt (duplex implied, only one strand printed)"}
{"binder": "B1", "values": [{"measurement": "binding result", "value": "binds"}]}
